For test [1], the target named is T1, STING (Mus musculus, UniProt Q3TBT3).
T1 construct: expressed in transfected cells
T1 sequence (Q3TBT3 1-378): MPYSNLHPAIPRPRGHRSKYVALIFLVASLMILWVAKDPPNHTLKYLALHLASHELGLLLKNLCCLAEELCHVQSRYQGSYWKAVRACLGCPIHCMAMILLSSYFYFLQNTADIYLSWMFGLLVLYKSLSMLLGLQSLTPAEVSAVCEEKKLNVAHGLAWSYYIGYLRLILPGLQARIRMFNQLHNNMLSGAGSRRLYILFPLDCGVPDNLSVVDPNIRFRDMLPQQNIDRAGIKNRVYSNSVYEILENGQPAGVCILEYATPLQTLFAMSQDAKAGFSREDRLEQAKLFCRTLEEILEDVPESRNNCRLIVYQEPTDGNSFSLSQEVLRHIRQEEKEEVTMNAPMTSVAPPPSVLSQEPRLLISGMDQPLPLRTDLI
Description: STING trafficking in MEFs stably transfected with HA-STING after ISD stimulation. The format is cell-based, murine. The note with it: Brefeldin A (0.1 ng/ml) or chloroquine (0.1 mM) for 1 hour prior to ISD stimulation. On the procedure:
FIG. 32B: MEFs stably transfected with HA-STING were treated with Brefeldin A (0.1 ng/ml) or chloroquine (0.1 mM) for 1 hour prior to ISD stimulation (3 hours 1 ng/ml in Lipofectamine 2000). Green=anti-HA and red=anti-calreticulin. FIG. 32C: Wild type MEFs were treated with Brefeldin A as above and IFNβ mRNA measured. FIGS. 32D, 32E: 293T cells were treated with various concentrations of Brefeldin A as above were co-transfected with STING, constitutively active IRF3 or IRF7 and IFN-luciferase reporter plasmid. Luciferase was measured after 24 hours. FIGS. 32F, 32G: Macrophages treated with various chloroquine amounts for one hour were treated with ISD (1 ng/ml), poly (dAT-dAT) [1 ng/ml] or LPS (1ng/ml) and after 16 hours IFNβ or IL6 measured by ELISA. FIG. 32H: STING^−/− MEFS were transfected with HA-STING or HA-STINGΔSP (that lacks the first 36 amino acids representing a potential signal peptide motif) for 24 hours prior to treatment with ISD (1 ng/ml). After 3 hours STING localization was measured using immunofluorescence and an anti-HA antibody (green) or anti calreticulin antibody (red). FIG. 32I: 293T cells were co-transfected with HA-STING or HA-STINGΔSP and an IFN-Luciferase plasmid and after 24 hours luciferase was measured. […] Asterisks indicate significant difference (P<0.05) as determined by Student's t-test. Error bars indicate s.d. […]

The target of test [2] is STING (Homo sapiens, UniProt Q86WV6). Nature of the test: STING cell based assay, drug library screen.
Sequence of STING (Homo sapiens, UniProt Q86WV6) (Q86WV6 whole entry): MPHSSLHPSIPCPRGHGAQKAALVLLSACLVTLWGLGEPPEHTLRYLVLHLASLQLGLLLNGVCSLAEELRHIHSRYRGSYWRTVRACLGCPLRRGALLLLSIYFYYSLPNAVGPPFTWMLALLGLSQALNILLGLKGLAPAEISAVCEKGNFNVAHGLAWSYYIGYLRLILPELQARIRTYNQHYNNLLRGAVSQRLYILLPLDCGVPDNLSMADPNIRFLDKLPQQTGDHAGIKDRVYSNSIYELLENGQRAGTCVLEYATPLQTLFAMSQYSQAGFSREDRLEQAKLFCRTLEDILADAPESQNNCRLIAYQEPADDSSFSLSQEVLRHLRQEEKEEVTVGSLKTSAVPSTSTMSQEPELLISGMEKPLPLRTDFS
The test system of the next test is S366 peptide. Nature of the test: screening of kinases for S366 of STING (33P-ATP). The format is biochemical. The note with it: for Fold inducton: S366 peptide vs A366 peptide; for Activity, S366 peptide: kinase mixed with peptide and 33P-ATP. On the procedure: (§1) The activity of 217 protein kinase targets were evaluated against 2 peptides (A366 and S366) as substrate. Protein kinases were mixed with each peptide and ^33P-ATP and then activity (CPM) was measured. The below kinases were identified as phosphorylating S366 in STING. Identification of kinases which target this serine opens up novel avenues for drug discovery. Drugs that target this association may inhibit STING activity and be used for therapeutic purposes to inhibit STING activity. STING over activity may lead to inflammatory diseases which can exacerbate cancer.

A further test has as its system A366 peptide. Nature of the test: screening of kinases for S366 of STING (33P-ATP). The settings on record: kinase mixed with peptide and 33P-ATP. The format is biochemical. On the procedure:
as §1

Regarding `C[C@H]1CCC/C=C/[C@@H]2C[C@H](O)C[C@H]2[C@H](O)/C=C/C(=O)O1` [Brefeldin A], the STING trafficking result at STING [1] is listed as “blocked STING trafficking”.
Consider `C[C@@H]1O[C@@H](O[C@H]2C[C@@H](O)[C@]3(CO)[C@H]4[C@H](O)C[C@]5(C)[C@@H]([C@@H]6COC(=O)C6)CC[C@]5(O)[C@@H]4CC[C@]3(O)C2)[C@H](O)[C@H](O)[C@H]1O` [dihydroouabain], for which, at STING [2], the “Activators of STING” value is reported as “Activators of STING”.
Regarding `CCN(CC)CCCC(C)Nc1ccnc2cc(Cl)ccc12` (stereo not shown) [chloroquine], the STING trafficking result at STING [1] is “but not chloroquine blocked STING trafficking”.
Turning to `O=C(O)/C=C\C(=O)O.O=C1/C(=C/c2ccccc2)C[C@@]2(O)[C@H]3Cc4ccc(O)c5c4[C@@]2(CCN3CC2CC2)[C@H]1O5` [BNTX maleate salt hydrate], at STING [2], the “Activators of STING” value is listed as “Activators of STING”.

B1: ULK2 (enzyme)
chain: MEVVGDFEYSKRDLVGHGAFAVVFRGRHRQKTDWEVAIKSINKKNLSKSQILLGKEIKILKELQHENIVALYDVQELPNSVFLVMEYCNGGDLADYLQAKGTLSEDTIRVFLHQIAAAMRILHSKGIIHRDLKPQNILLSYANRRKSSVSGIRIKIADFGFARYLHSNMMAATLCGSPMYMAPEVIMSQHYDAKADLWSIGTVIYQCLVGKPPFQANSPQDLRMFYEKNRSLMPSIPRETSPYLANLLLGLLQRNQKDRMDFEAFFSHPFLEQGPVKKSCPVPVPMYSGSVSGSSCGSSPSCRFASPPSLPDMQHIQEENLSSPPLGPPNYLQVSKDSASTSSKNSSCDTDDFVLVPHNISSDHSCDMPVGTAGRRASNEFLVCGGQCQPTVSPHSETAPIPVPTQIRNYQRIEQNLTSTASSGTNVHGSPRSAVVRRSNTSPMGFLRPGSCSPVPADTAQTVGRRLSTGSSRPYSPSPLVGTIPEQFSQCCCGHPQGHDSRSRNSSGSPVPQAQSPQSLLSGARLQSAPTLTDIYQNKQKLRKQHSDPVCPSHTGAGYSYSPQPSRPGSLGTSPTKHLGSSPRSSDWFFKTPLPTIIGSPTKTTAPFKIPKTQASSNLLALVTRHGPAEE
In the case of B1, in the test on S366 peptide, the Fold inducton came out at 21.13 and the “Activity, S366 peptide” value came to 15580 cpm. Moreover, the “Activity, A366 peptide” value in the test on A366 peptide worked out at 7377 cpm. This molecule returned an Activity (cpm), kinase mixed with peptide and 33P-ATP with A366 peptide of STING of 7380 cpm. Further, the Activity (cpm), kinase mixed with peptide and 33P-ATP with S366 peptide of STING was found to be 15600 cpm.

B2: ULK1 (enzyme)
chain: MEPGRGGTETVGKFEFSRKDLIGHGAFAVVFKGRHREKHDLEVAVKCINKKNLAKSQTLLGKEIKILKELKHENIVALYDFQEMANSVYLVMEYCNGGDLADYLHAMRTLSEDTIRLFLQQIAGAMRLLHSKGIIHRDLKPQNILLSNPAGRRANPNSIRVKIADFGFARYLQSNMMAATLCGSPMYMAPEVIMSQHYDGKADLWSIGTIVYQCLTGKAPFQASSPQDLRLFYEKNKTLVPTIPRETSAPLRQLLLALLQRNHKDRMDFDEFFHHPFLDASPSVRKSPPVPVPSYPSSGSGSSSSSSSTSHLASPPSLGEMQQLQKTLASPADTAGFLHSSRDSGGSKDSSCDTDDFVMVPAQFPGDLVAEAPSAKPPPDSLMCSGSSLVASAGLESHGRTPSPSPPCSSSPSPSGRAGPFSSSRCGASVPIPVPTQVQNYQRIERNLQSPTQFQTPRSSAIRRSGSTSPLGFARASPSPPAHAEHGGVLARKMSLGGGRPYTPSPQVGTIPERPGWSGTPSPQGAEMRGGRSPRPGSSAPEHSPRTSGLGCRLHSAPNLSDLHVVRPKLPKPPTDPLGAVFSPPQASPPQPSHGLQSCRNLRGSPKLPDFLQRNPLPPILGSPTKAVPSFDFPKTPSSQNLLALLARQ
B2: in the test with S366 peptide, the Fold inducton turned out to be 17.10 and the “Activity, S366 peptide” value is 209014 cpm. Besides, the “Activity, A366 peptide” value in the test with A366 peptide is given as 12221 cpm. In the test with A366 peptide of STING, this molecule returned an Activity (cpm), kinase mixed with peptide and 33P-ATP of 12200 cpm. The molecule also showed an Activity (cpm), kinase mixed with peptide and 33P-ATP in the test with S366 peptide of STING of 209000 cpm.

B3: TBK1 (protein kinase panel) (enzyme)
chain: MQSTSNHLWLLSDILGQGATANVFRGRHKKTGDLFAIKVFNNISFLRPVDVQMREFEVLKKLNHKNIVKLFAIEEETTTRHKVLIMEFCPCGSLYTVLEEPSNAYGLPESEFLIVLRDVVGGMNHLRENGIVHRDIKPGNIMRVIGEDGQSVYKLTDFGAARELEDDEQFVSLYGTEEYLHPDMYERAVLRKDHQKKYGATVDLWSIGVTFYHAATGSLPFRPFEGPRRNKEVMYKIITGKPSGAISGVQKAENGPIDWSGDMPVSCSLSRGLQVLLTPVLANILEADQEKCWGFDQFFAETSDILHRMVIHVFSLQQMTAHKIYIHSYNTATIFHELVYKQTKIISSNQELIYEGRRLVLEPGRLAQHFPKTTEENPIFVVSREPLNTIGLIYEKISLPKVHPRYDLDGDASMAKAITGVVCYACRIASTLLLYQELMRKGIRWLIELIKDDYNETVHKKTEVVITLDFCIRNIEKTVKVYEKLMKINLEAAELGEISDIHTKLLRLSSSQGTIETSLQDIDSRLSPGGSLADAWAHQEGTHPKDRNVEKLQVLLNCMTEIYYQFKKDKAERRLAYNEEQIHKFDKQKLYYHATKAMTHFTDECVKKYEAFLNKSEEWIRKMLHLRKQLLSLTNQCFDIEEEVSKYQEYTNELQETLPQKMFTASSGIKHTMTPIYPSSNTLVEMTLGMKKLKEEMEGVVKELAENNHILERFGSLTMDGGLRNVDCL
On to B3, for which, in the test with S366 peptide, the Fold inducton stood at 2.52 and the “Activity, S366 peptide” value amounted to 16651 cpm. The “Activity, A366 peptide” value with A366 peptide is on record as 6603 cpm. Also, in the test with A366 peptide of STING, the Activity (cpm), kinase mixed with peptide and 33P-ATP is 6600 cpm. The Activity (cpm), kinase mixed with peptide and 33P-ATP with S366 peptide of STING turned out to be 16700 cpm.

(Values after patent publication US20180085432A1, “STING (Stimulator of Interferon Genes), A Regulator of Innate Immune Responses” (University of Miami, priority 2008, published 2018).)
